Results published in patent publication EP4631959A2, “NOVEL MINIGASTRIN-DERIVED CHOLECYSTOKININ 2 RECEPTOR BINDING MOLECULES FOR IMAGING AND TARGETED RADIOTHERAPY” (priority 2022, dated 2024).
Like-named read-outs stand apart in the source and are kept apart here. Starred links: 1 amine or outer side, 2 acyl side, 3 side chain; linkers in the order of their positions; H or OH if unused. Non-standard residues stand in square brackets, D forms with d. Residues, ends and D or L forms follow the SMILES beside them. *: point of attachment. Benzoyl(4-SiFtBu2) = CC(C)(C)[Si](F)(c1ccc(C(=O)*)cc1)C(C)(C)C; DOTA = O=C(O)CN1CCN(CC(=O)O)CCN(CC(=O)*)CCN(CC(=O)O)CC1; d(γGlu) = O=C(O)[C@@H](CCC(=O)[*:2])N[*:1]; 1Nal = N[C@@H](Cc1cccc2ccccc12)C(=O)O; Hyp = O=C(O)[C@@H]1C[C@@H](O)CN1; NMeNle = CCCC[C@H](NC)C(=O)O; PEG4 = NCCOCCOCCOCCOCCC(=O)O; dDap = NC[C@@H](N)C(=O)O

Columns and labels:
CCK-2R = test: Competition studies in AR4-2J tumor-bearing CB17-SCID mice; type: in vivo; conditions: co-administration of excess unlabeled competitor (40 nmol), 24 h p.i.
Experimental: For competition studies, the radiolabeled compound (approx. 1-5 MBq, 100 pmol) was co-injected with [^natLu]Lu-DOTA-MGS5 (40 nmol) into the tail vein of AR4-2J tumor-bearing CB17-SCID mice and sacrificed at 1 to 24 h post injection (n = 2). Selected organs were removed, weighted and measured in a γ-counter.

[1] = target: T1, Human serum albumin (HSA) (Homo sapiens, UniProt P02768); test: Determination of HSA binding on a Chiralpak HSA column; type: in vitro ADME; conditions: Tab. 8; metal not stated (Fig. 18: ^natLu)
T1 construct: purchased Daicel, Tokyo, Japan H13H-2433
How it was run: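 Retention on an HSA column with a 50 mM NH4OAc (pH 6.9)/isopropanol gradient at 0.5 mL/min, rt; samples run at 0.5 mg/mL in A/B (1/1). Binding derived by non-linear regression against nine reference compounds spanning 13 to 99% HSA binding.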

[2] = Biodistribution in AR4-2J tumor-bearing CB17-SCID mice; type: in vivo; conditions: female, CB17-SCID, mouse, in vivo, iv, 100 pmol, total radioactivity, 100 pmol; for tissue uptake at 1 h: 1 h p.i.; for tissue uptake at 2 h: 2 h p.i.; for tissue uptake at 4 h: 4 h p.i.
Experimental: All animal experiments were conducted in accordance with general animal welfare regulations in Germany (German animal protection act, in the edition of the announcement, dated May 18th, 2006, as amended by Article 280 of June 19th 2020, approval no. ROB-55.2-1-2532.Vet_02-18-109 by the General Administration of Upper Bavaria) and the institutional guidelines for the care and use of animals. CB17-SCID mice of both genders (Charles River Laboratories International Inc., Sulzfeld, Germany) were let to acclimate at the in-house animal facility at least for one week before inoculation was performed. To establish tumor xenografts, AR4-2J cells (5.0 × 10^6 cells per 200 µL) were suspended in a 1/1 mixture (v/v) of Dulbecco modified Eagle medium / Nutrition Mixture F-12 with Glutamax-I (1/1) and Cultrex® Basement Membrane Matrix Type 3 (Trevigen, Gaithersburg, MD, USA) and inoculated subcutaneously onto the right shoulder of 6-10 weeks old CB17-SCID mice (Charles River, Sulzfeld, Germany). Mice were used for experiments when tumors had grown to a volume of 150-300 mm^3 (1-2 weeks after inoculation). Exclusion criteria for animals from an experiment were either a weight loss higher than 20%, a tumor size above 1,500 mm^3, an ulceration of the tumor, a respiratory distress or a change of behavior. None of these criteria applied to any animal from the experiment. Neither randomization nor blinding was applied in the allocation of the experiments. Health status is SPF according to FELASA.
Approximately 1-5 MBq (100 pmol) of the radiolabeled minigastrin analogues were injected into the tail vein of AR4-2J tumor-bearing female CB17-SCID mice and sacrificed at 1 to 24 h post injection (n = 4-5). Selected organs were removed, weighted and measured in a γ-counter.

[3] = n-Octanol-PBS distribution coefficient (logD7.4); type: physicochemical; conditions: pH = 7.4, ^177Lu-labeled
Experimental: Approximately 1 MBq of the labeled tracer was dissolved in 1 mL of a 1/1 mixture (v/v) of phosphate buffered saline (PBS, pH = 7.4) and n-octanol in an Eppendorf tube (1.5 mL). After vigorous mixing of the suspension for 3 min at rt, the vial was centrifuged at 9,000 rpm for 5 min (Biofuge 15, Heraeus Sepatech, Osterode, Germany) and 200 µL aliquots of both layers were measured in a γ-counter. The experiment was repeated at least five times.

[4] = read-out: activity levels in the blood
[5] = read-out: activity levels in the tumor

T1 sequence (P02768 25-609): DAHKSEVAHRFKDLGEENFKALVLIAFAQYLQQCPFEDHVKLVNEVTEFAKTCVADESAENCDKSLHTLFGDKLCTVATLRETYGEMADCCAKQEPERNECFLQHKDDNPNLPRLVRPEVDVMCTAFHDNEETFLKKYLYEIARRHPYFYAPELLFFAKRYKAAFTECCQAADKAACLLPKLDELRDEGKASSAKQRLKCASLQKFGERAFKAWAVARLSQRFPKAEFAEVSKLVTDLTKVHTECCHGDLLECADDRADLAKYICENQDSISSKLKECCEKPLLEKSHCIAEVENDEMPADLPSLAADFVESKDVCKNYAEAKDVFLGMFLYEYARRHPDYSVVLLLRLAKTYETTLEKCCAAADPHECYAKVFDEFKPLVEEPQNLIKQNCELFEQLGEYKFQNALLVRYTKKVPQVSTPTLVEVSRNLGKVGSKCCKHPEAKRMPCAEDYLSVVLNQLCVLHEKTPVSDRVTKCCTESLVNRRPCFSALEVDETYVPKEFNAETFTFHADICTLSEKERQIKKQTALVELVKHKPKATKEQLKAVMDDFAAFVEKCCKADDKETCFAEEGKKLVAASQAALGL

## CCCC[C@@H](C(=O)N[C@@H](CC(=O)O)C(=O)N[C@@H](Cc1cccc2ccccc12)C(N)=O)N(C)C(=O)[C@H](Cc1c[nH]c2ccccc12)NC(=O)CCOCCOCCOCCOCCNC(=O)CC[C@@H](NC(=O)[C@@H]1C[C@@H](O)CN1C(=O)[C@@H]1C[C@@H](O)CN1C(=O)[C@@H]1C[C@@H](O)CN1C(=O)[C@@H]1C[C@@H](O)CN1C(=O)[C@@H]1C[C@@H](O)CN1C(=O)[C@@H]1C[C@@H](O)CN1C(=O)CC[C@@H](NC(=O)[C@@H](CNC(=O)c1ccc([Si](F)(C(C)(C)C)C(C)(C)C)cc1)NC(=O)CN1CCN(CC(=O)O)CCN(CC(=O)O)CCN(CC(=O)O)CC1)C(=O)O)C(=O)O [DOTA-rhCCK-84, DOTA-dap(SiFA)-γ-glu-(Hyp)6-γ-glu-(PEG)3-Trp-(N-Me)Nle-Asp-1-Nal-NH2] ({DOTA}-[dDap](Benzoyl(4-SiFtBu2))[d(γGlu)][Hyp][Hyp][Hyp][Hyp][Hyp][Hyp][d(γGlu)][PEG4]W[NMeNle]D[1Nal]-NH2)
CCK-2R
  activity levels in stomach and tumor in competition studies (CCK-2R specificity): significantly decreased activity levels in both stomach and tumor
[1]
  HSA binding [%]: 90.0%
[2]; [4]
  tissue uptake at 1 h: 11.3 ± 1.3 %ID/g
  tissue uptake at 2 h: 3.71 ± 0.46 %ID/g
  tissue uptake at 4 h: 1.14 ± 0.18 %ID/g
[2]; read-out: tumor uptake
  tissue uptake at 1 h: 36.3 ± 3.7 %ID/g
[2]; [5]
  tissue uptake at 2 h: 35 ± 2.9 %ID/g
  tissue uptake at 4 h: 34 ± 3.6 %ID/g
[2]; 24 h p.i., read-out: activity levels in the kidneys
  tissue uptake at 24 h: < 10 %ID/g
[3]
  logD7.4 (n ≥ 5), ^177Lu-labeled: -2.14 ± 0.06
[3]; listed as [^nat/177Lu]Lu-DOTA-rhCCK-84
  logD7.4 (n ≥ 5), ^177Lu-labeled: -2.14 ± 0.06
